Laboratory results taken from patent publication US20070041972A1 (Alexion, published 2007).

Legend:
[1] = biological target: T1, human high affinity receptor for IgG (FcγRI) on U937 cells (human, UniProt P12314 16-374); assay: flow cytometry competition with 3.0 ng/mL biotinylated hIgG on U937 cells
T1 construct: whole, on cells; also called FcγRI receptor

[2] = biological target: T2, human low affinity receptor for IgG (FcγRII) on K562 cells (human, UniProt P12318 34-317); assay: flow cytometry on K562 cells, antibody complexed with FITC-rabbit Fab'2 anti-human Fab'2
T2 construct: whole, on cells
T2 sequence (looked up): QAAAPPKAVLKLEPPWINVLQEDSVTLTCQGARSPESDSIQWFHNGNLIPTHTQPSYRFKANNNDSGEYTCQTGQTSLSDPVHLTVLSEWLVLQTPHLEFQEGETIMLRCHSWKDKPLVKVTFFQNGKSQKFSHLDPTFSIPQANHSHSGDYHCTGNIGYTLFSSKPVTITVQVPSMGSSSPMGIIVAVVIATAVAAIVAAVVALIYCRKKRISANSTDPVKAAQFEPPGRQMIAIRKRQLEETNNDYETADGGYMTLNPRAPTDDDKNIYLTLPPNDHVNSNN

B1: chimeric OKT3 hG2/G4 recombinant antibody (murine OKT3 variable regions, engineered human IgG2/IgG4 heavy chain constant region, human kappa constant region) (antibody)
heavy: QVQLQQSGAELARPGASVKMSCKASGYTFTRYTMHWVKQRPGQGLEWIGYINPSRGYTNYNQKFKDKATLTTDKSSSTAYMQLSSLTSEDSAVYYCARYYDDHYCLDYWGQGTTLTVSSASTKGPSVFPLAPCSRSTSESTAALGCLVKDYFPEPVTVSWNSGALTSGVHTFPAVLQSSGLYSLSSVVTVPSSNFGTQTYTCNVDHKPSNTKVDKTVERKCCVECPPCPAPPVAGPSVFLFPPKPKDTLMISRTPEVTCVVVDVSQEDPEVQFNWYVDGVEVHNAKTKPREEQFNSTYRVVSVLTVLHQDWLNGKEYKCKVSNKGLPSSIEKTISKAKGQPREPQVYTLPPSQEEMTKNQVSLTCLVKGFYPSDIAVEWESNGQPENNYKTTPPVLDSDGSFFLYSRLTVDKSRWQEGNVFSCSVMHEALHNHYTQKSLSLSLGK
light: QIVLTQSPAIMSASPGEKVTMTCSASSSVSYMNWYQQKSGTSPKRWIYDTSKLASGVPAHFRGSGSGTSYSLTISGMEAEDAATYYCQQWSSNPFTFGSGTKLEIKRTVAAPSVFIFPPSDEQLKSGTASVVCLLNNFYPREAKVQWKVDNALQSGNSQESVTEQDSKDSTYSLSSTLTLSKADYEKHKVYACEVTHQGLSSPVTKSFNRGEC
notes: Made in two expression systems; also called chimeric antibody containing an engineered IgG2/IgG4 human constant region
Question: Does B1 bind [1]?
Answer: no binding

Question: Does B1 bind [2]?
Answer: no binding
